In article PMC12043514 (Nature, 2024):

Key:
[1] = target: SV40 large tumour antigen (LTag) helicase hexamer (Simian virus 40, UniProt P03070 1-708); test: cryo-EM
cryo-EM structure = target: the molecule itself; test: cryo-EM structure

Binder	binding result [1]	stoichiometry N (cryo-EM structure)
gap DNA substrate without free 3' ssDNA tail (mixed, 3' terminal dideoxy-C ([23ddC]) on strand 1) DNA 1: AGCTATGACCATGATTACGAATTGC DNA 2: TTTTTCGGAGTCGTTTCGACTCCGATTTTTTTTTTTTTTTTTTTTTTTTTTTTTTTTTTTTTTTTTTTTTGCAATTCGTAATCATGGTCATAGCT	no binding	–
simian virus 40 large tumour antigen (LTag) helicase (enzyme) MDKVLNREESLQLMDLLGLERSAWGNIPLMRKAYLKKCKEFHPDKGGDEEKMKKMNTLYKKMEDGVKYAHQPDFGGFWDATEIPTYGTDEWEQWWNAFNEENLFCSEEMPSSDDEATADSQHSTPPKKKRKVEDPKDFPSELLSFLSHAVFSNRTLACFAIYTTKEKAALLYKKIMEKYSVTFISRHNSYNHNILFFLTPHRHRVSAINNYAQKLCTFSFLICKGVNKEYLMYSALTRDPFSVIEESLPGGLKEHDFNPEEAEETKQVSWKLVTEYAMETKCDDVLLLLGMYLEFQYSFEMCLKCIKKEQPSHYKYHEKHYANAAIFADSKNQKTICQQAVDTVLAKKRVDSLQLTREQMLTNRFNDLLDRMDIMFGSTGSADIEEWMAGVAWLHCLLPKMDSVVYDFLKCMVYNIPKKRYWLFKGPIDSGKTTLAAALLELCGGKALNVNLPLDRLNFELGVAIDQFLVVFEDVKGTGGESRDLPSGQGINNLDNLRDYLDGSVKVNLEKKHLNKRTQIFPPGIVTMNEYSVPKTLQARFVKQIDFRPKDYLKHCLERSEFLLEKRIIQSGIALLLMLIWYRPVAEFAQSIQSRIVEWKERLDKEFSLSVYQKMKFNVAMGIGVLDWLRNSDDDDEDSQENADKNEDGGEKNMEDSGHETGIDSQSQGSFQAPQSSQSVHDHNQPYHICRGFTCFKKPPTPPPEPET	–	6
